The source of these data is publication PMC12822413, “TSHR‐Targeting Nucleic Acid Aptamer Treats Graves' Ophthalmopathy via Novel Allosteric Inhibition” (Advanced Science, 2025).

This assay deals with T1, thyrotropin receptor (TSHR), wild type, on HEK293T cells stably expressing it (TSHR-293T) (human, UniProt P16473-1).
T1 construct: human thyrotropin receptor, cDNA from GeneCopoeia (NM_000369.4) cloned into pLVX-Puro; also called TSHR-293T cells; source: HEK293T, lentiviral transduction (pLVX-Puro), puromycin selected, on cells
The assay is described as follows: flow cytometry on cells; competitive binding assay of M22 and the DNA aptamer YC3 on TSHR-293T cells; each in excess against the other. Conditions: one partner purified.

B1: Human monoclonal autoantibody to the TSHR (M22) (antibody, V domains shown)
VH: QVQLVQSGAEVKKPGESLKISCRGSGYRFTSYWINWVRQLPGKGLEWMGRIDPTDSYTNYSPSFKGHVTVSADKSINTAYLQWSSLKASDTGMYYCARLEPGYSSTWSVNWGQGTLVTVS
VL: LTVLTQPPSVSGAPRQRVTISCSGNSSNIGNNAVNWYQQLPGKAPKLLIYYDDQLPSGVSDRFSGSRSGTSASLAIRGLQSEDEADYYCTSWDDSLDSQLFGGGTRLTVL
notes: also called human TSAb; source: bought: RSR (Cardiff, UK)
Turning to B1, the binding result is reported as “binds”.
